Reference: patent US20210338833A1 (MIT, published 2021)
Ends that are not written are not given here. * marks the point of attachment. Biotin = O=C1N[C@H]2[C@H](CS[C@H]2CCCCC(=O)*)N1

B1: FMC63 Mimotope (H1) RVCPWSCMPI (peptide)
peptide: RVCPWSCMPI
notes: Not the 1D3 mimotope that is also called H1
B2: biotinylated F12 derivative GSGGGGSGGGGSASRICPWNCKEL (peptide)
peptide: Biotin-GSGGGGSGGGGSASRICPWNCKEL
modifications: not fully specified (bridges); cysteine pairing not given here
notes: Free peptide loaded on a streptavidin coated plate for ELISA
B3: biotinylated F12 derivative SASRICPWNCKEL (peptide)
peptide: Biotin-SASRICPWNCKEL
modifications: not fully specified (bridges); cysteine pairing not given here
notes: as for B2
B4: biotinylated F12 derivative GGGGSGGGGSGGGGSASRICPWNCKEL (peptide)
peptide: Biotin-GGGGSGGGGSGGGGSASRICPWNCKEL
modifications: not fully specified (bridges); cysteine pairing not given here
notes: as for B2
B5: biotinylated F12 derivative GGGSASRICPWNCKEL (peptide)
peptide: Biotin-GGGSASRICPWNCKEL
modifications: not fully specified (bridges); cysteine pairing not given here
notes: as for B2
B6: biotinylated F12 derivative GGSGGGGSASRICPWNCKEL (peptide)
peptide: Biotin-GGSGGGGSASRICPWNCKEL
modifications: not fully specified (bridges); cysteine pairing not given here
notes: as for B2

molecular target: T1, anti-mCD19 (clone 1D3) IgG; experiment: yeast display selection with 1D3 IgG
T1 construct: Anti-mouse CD19 IgG; biotinylated for sorting; also called 1D3 antibody; anti-mCD19 IgG
Protocol: Specifically, a library was generated using nested PCR and the primers in Table 1. […] For each round of enrichment, the top 0.5-1% of yeast were sorted. Following enrichment, isolated clones were subjected to Sanger sequencing. […] To further characterize the mimotope affinity, absolute binding affinity was measured by ELISA. Specifically, three mimotopes were selected for screening (Table 8). Of the selected sequences, two fusion mimotopes were chemically synthesized. Specifically, two mimotopes were fused to form a 20 amino acid peptide (Table 9).

T1 sequence (VH, as listed by the source, chain 1 of 2): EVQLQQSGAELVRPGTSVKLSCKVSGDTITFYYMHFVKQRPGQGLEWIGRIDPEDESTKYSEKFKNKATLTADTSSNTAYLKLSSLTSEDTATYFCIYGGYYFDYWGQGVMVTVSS
T1 sequence (VL, as listed by the source, chain 2 of 2): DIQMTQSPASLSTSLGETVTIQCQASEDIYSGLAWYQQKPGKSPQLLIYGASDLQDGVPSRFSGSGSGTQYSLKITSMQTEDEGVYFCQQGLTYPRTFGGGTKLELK

Does SKLKGKSGPE [1D3 Mimotope (H1) SKLKGKSGPE] bind?
Result: binds

molecular target: T2, FMC63 IgG; experiment: yeast-display FACS (MFI) titration with biotinylated FMC63 IgG, 0.01-1000 nM
T2 construct: Murine monoclonal antibody to human CD19; also called FMC63 IgG antibody; biotinylated FMC63 IgG
T2 sequence (VH, as listed by the source, chain 1 of 2): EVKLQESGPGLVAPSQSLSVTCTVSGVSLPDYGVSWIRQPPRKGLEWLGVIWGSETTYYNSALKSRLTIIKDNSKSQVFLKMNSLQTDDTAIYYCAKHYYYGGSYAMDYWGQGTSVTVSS
T2 sequence (VL, as listed by the source, chain 2 of 2): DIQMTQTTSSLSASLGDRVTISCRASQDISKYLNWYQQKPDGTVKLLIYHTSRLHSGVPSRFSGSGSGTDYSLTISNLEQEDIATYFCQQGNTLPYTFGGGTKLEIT

RLCPWSCVPI [FMC63 Mimotope (E6) RLCPWSCVPI] was tested. Which Kd did it give?
The Kd was 102 nM.

How did the Kd turn out when RICPWSCMVV [FMC63 Mimotope (B7) RICPWSCMVV] was run?
Its Kd is 376 nM.

With B1 as the binder, how does the Kd read?
The Kd was 199 nM.

How did the Kd turn out when RRCPWSCKKQ [FMC63 Mimotope (A12) RRCPWSCKKQ] was run?
Its Kd is 540 nM.

Which Kd does the source give for RMCPWSCRPH [FMC63 Mimotope (A8) RMCPWSCRPH] here?
The Kd was 397 nM.

RMCPWSCYEL [FMC63 Mimotope (C5) RMCPWSCYEL] was tested. Which Kd did it give?
Its Kd is 322 nM.

RLCPWSCREL (Parent of the alanine scan) [FMC63 Mimotope (G9) RLCPWSCREL] was tested. Which Kd did it give?
The Kd was 25.7 nM.

With RICPWSCREL [FMC63 Mimotope (H11) RICPWSCREL] as the binder, how does the Kd read?
The Kd was 10.3 nM.

For RICPWACVEL [FMC63 Mimotope (H8) RICPWACVEL], which Kd is on record?
The Kd was 9.5 nM.

Which Kd does the source give for RLCPWNCREL [FMC63 Mimotope (G11) RLCPWNCREL] here?
Its Kd is 18.2 nM.

With RLCPWDCREL [FMC63 Mimotope (F8) RLCPWDCREL] as the binder, how does the Kd read?
The Kd was 10.6 nM.

With RLCPWACQEQ [FMC63 Mimotope (C7) RLCPWACQEQ] as the binder, how does the Kd read?
Its Kd is 252 nM.

molecular target: T3, FMC63 scFv (biotinylated); experiment: yeast-display FACS titration with biotinylated FMC63 scFv
T3 construct: Whole scFv entry (VL-(G4S)3-VH); also called FMC63-scFv monomer; biotinylated FMC63 scFv
T3 sequence (scFv, as listed by the source): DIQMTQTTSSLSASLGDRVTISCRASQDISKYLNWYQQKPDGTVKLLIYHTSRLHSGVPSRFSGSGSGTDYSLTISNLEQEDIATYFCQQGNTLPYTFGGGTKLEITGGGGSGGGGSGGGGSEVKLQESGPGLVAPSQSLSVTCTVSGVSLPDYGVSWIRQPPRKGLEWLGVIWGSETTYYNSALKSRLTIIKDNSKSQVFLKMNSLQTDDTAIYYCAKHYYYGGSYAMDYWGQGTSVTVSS

How did the Kd turn out when RICPWNCKEL (also called F12 mimotope) [FMC63 Mimotope (F12) RICPWNCKEL] was run?
Its Kd is 42 nM.

With RLCPWSCVPI [FMC63 Mimotope (E6) RLCPWSCVPI] as the binder, how does the Kd read?
Its Kd is 126 nM.

For B1, which Kd is on record?
The Kd was 178 nM.

For RRCPWSCKKQ [FMC63 Mimotope (A12) RRCPWSCKKQ], which Kd is on record?
Its Kd is 240 nM.

For RMCPWSCYEL [FMC63 Mimotope (C5) RMCPWSCYEL], which Kd is on record?
Its Kd is 238 nM.

With RLCPWSCREL (Parent of the alanine scan) [FMC63 Mimotope (G9) RLCPWSCREL] as the binder, how does the Kd read?
The Kd was 50.6 nM.

RICPWSCREL [FMC63 Mimotope (H11) RICPWSCREL] was tested. Which Kd did it give?
Its Kd is 38.6 nM.

With RICPWACVEL [FMC63 Mimotope (H8) RICPWACVEL] as the binder, how does the Kd read?
The Kd was 38.9 nM.

How did the Kd turn out when RLCPWNCREL [FMC63 Mimotope (G11) RLCPWNCREL] was run?
The Kd was 38.4 nM.

RLCPWDCREL [FMC63 Mimotope (F8) RLCPWDCREL] was tested. Which Kd did it give?
The Kd was 41.5 nM.

Which Kd does the source give for RLCPWACQEQ [FMC63 Mimotope (C7) RLCPWACQEQ] here?
The Kd was 219 nM.

molecular target: T3, FMC63 scFv; experiment: flow cytometry (MFI) of yeast clone with biotinylated FMC63 scFv and streptavidin-PE

Which Kd does the source give for QFQRICPWNCKELYWLPDQ [FMC63 mimotope K-F5 QFQRICPWNCKELYWLPDQ] here?
Its Kd is 13.2 nM.

Which Kd does the source give for RICPWNCKEL (also called F12 mimotope) [FMC63 Mimotope (F12) RICPWNCKEL] here?
The Kd was 45.5 nM.

Which Kd does the source give for AKRRERDYVGRICPWNCKELHPDTRHRIPV [FMC63 mimotope K-A10 AKRRERDYVGRICPWNCKELHPDTRHRIPV] here?
Its Kd is 18.7 nM.

How did the Kd turn out when AGTRICPWNCKELYWLPDE [FMC63 mimotope K-D11 AGTRICPWNCKELYWLPDE] was run?
The Kd was 15.9 nM.

How did the Kd turn out when PPPRICPWNCKELPLDWPW [FMC63 mimotope K-B5 PPPRICPWNCKELPLDWPW] was run?
Its Kd is 23.8 nM.

With RICPWNCKELYWLPDE [FMC63 mimotope K-A11 RICPWNCKELYWLPDE] as the binder, how does the Kd read?
The Kd was 16.8 nM.

With RICPWNCKELPTPYMMFDM [FMC63 mimotope K-A3 RICPWNCKELPTPYMMFDM] as the binder, how does the Kd read?
Its Kd is 22.1 nM.

How did the Kd turn out when PLSRICPWNCKELYWLPQR [FMC63 mimotope K-A5 PLSRICPWNCKELYWLPQR] was run?
Its Kd is 12.8 nM.

Which Kd does the source give for RICPWNCKELPSPPRIFGNR [FMC63 mimotope K-C2 RICPWNCKELPSPPRIFGNR] here?
Its Kd is 14.8 nM.

molecular target: T2, FMC63 IgG; experiment: flow cytometry of yeast-displayed mutant with 5 µM FMC63 IgG
Protocol: Specifically, a representative mimotope, […] […] To generate mutations, two complementary oligos with the codon replaced at the desired site were denatured at 95° C. and annealed by slow cooling to 25° C. (decreasing by 0.5° C./second). The annealed oligos were treated with T4 PNK (T4 Polynucleotide Kinase) to add a terminal phosphate, and then ligated into digested pCT-CON2 vector. Positive clones having the correct oligo inserted were tested and transformed into competent EBY100 yeast cells.

Does RLCPWSCREA (also called G9 X5 (Leu 10) to Ala) [FMC63 Mimotope Mutant RLCPWSCREA] bind?
Result: binds

Does RACPWSCREL (also called G9 X1 (Leu 2) to Ala) [FMC63 Mimotope Mutant RACPWSCREL] bind?
Result: binds

Does RLCPWSCRAL (also called G9 X4 (Glu 9) to Ala) [FMC63 Mimotope Mutant RLCPWSCRAL] bind?
Result: binds

Does RLCPWACREL (also called G9 X2 (Ser 6) to Ala) [FMC63 Mimotope Mutant RLCPWACREL] bind?
Result: binds

Does RLCPWSCAEL (also called G9 X3 (Arg 8) to Ala) [FMC63 Mimotope Mutant RLCPWSCAEL] bind?
Result: binds

molecular target: T2, FMC63 IgG; experiment: yeast display FACS selection with biotinylated FMC63 IgG, second sort
Source text: (§1) As in Example 1, a yeast library was generated using nested PCR and the primers in Table 3.

Does RICPWSCVKQ [FMC63 Mimotope RICPWSCVKQ] bind?
Result: binds

Does RICPWGCKEL [FMC63 Mimotope RICPWGCKEL] bind?
Result: binds

Does RLCPWSCVEQ [FMC63 Mimotope RLCPWSCVEQ] bind?
Result: binds

Does RLCPWSCIPF [FMC63 Mimotope RLCPWSCIPF] bind?
Result: binds

Does RLCPWSCLEI [FMC63 Mimotope RLCPWSCLEI] bind?
Result: binds

Does RLCPWSCIKL [FMC63 Mimotope RLCPWSCIKL] bind?
Result: binds

Does RICPWSCIEL [FMC63 Mimotope RICPWSCIEL] bind?
Result: binds

Does RICPWSCMEL [FMC63 Mimotope RICPWSCMEL] bind?
Result: binds

Does RICPWSCVEL [FMC63 Mimotope RICPWSCVEL] bind?
Result: binds

Does RLCPWNCQEL [FMC63 Mimotope RLCPWNCQEL] bind?
Result: binds

Does RMCPWNCREL [FMC63 Mimotope RMCPWNCREL] bind?
Result: binds

Does RLCPWNCRQL [FMC63 Mimotope RLCPWNCRQL] bind?
Result: binds

Does RLCPWNCSEL [FMC63 Mimotope RLCPWNCSEL] bind?
Result: binds

Does RICPWSCRPL [FMC63 Mimotope RICPWSCRPL] bind?
Result: binds

Does RLCPWDCKEL [FMC63 Mimotope RLCPWDCKEL] bind?
Result: binds

Does RLCPWKCREL [FMC63 Mimotope RLCPWKCREL] bind?
Result: binds

Does RICPWDCKPI [FMC63 Mimotope RICPWDCKPI] bind?
Result: binds

molecular target: T2, FMC63 IgG; experiment: ELISA, N-terminally biotinylated peptide on streptavidin plate, FMC63 IgG

B2 was tested. Which Kd did it give?
Its Kd is 0.134 nM.

B3 was tested. Which Kd did it give?
Its Kd is 0.147 nM.

B4 was tested. Which Kd did it give?
Its Kd is 0.153 nM.

How did the Kd turn out when B5 was run?
Its Kd is 0.141 nM.

How did the Kd turn out when B6 was run?
Its Kd is 0.139 nM.

molecular target: T2, FMC63 IgG; experiment: yeast display FACS selection with biotinylated FMC63 IgG, first sort
Source text: as §1

Does RLCPWNCIHW [FMC63 Mimotope RLCPWNCIHW] bind?
Result: binds

Does RLCPWECRVL [FMC63 Mimotope RLCPWECRVL] bind?
Result: binds

Does RLCPWSCMPR [FMC63 Mimotope RLCPWSCMPR] bind?
Result: binds

Does RVCPWSCVEQ [FMC63 Mimotope RVCPWSCVEQ] bind?
Result: binds

Does RICPWACLSL [FMC63 Mimotope RICPWACLSL] bind?
Result: binds

Does RLCPWHCAII [FMC63 Mimotope RLCPWHCAII] bind?
Result: binds

Does RLCPWDCLIL [FMC63 Mimotope RLCPWDCLIL] bind?
Result: binds

Does RLCPWACRQL [FMC63 Mimotope RLCPWACRQL] bind?
Result: binds

Does RICPWNCSKL [FMC63 Mimotope RICPWNCSKL] bind?
Result: binds
